Results from patent US20230406885A1, “CYCLIC PEPTIDES FOR TRAPPING INTERLEUKIN-1 BETA” (MERCK SHARP & DOHME LLC, priority 2022, published 2023).
*1 amine or outer side, *2 acyl side, *3 side chain or, on linkers, in order; H or OH if unused. [ ]: non-standard residue; d: D form. 3AzaPhe4AcPip = (S)-3-(6-(4-acetylpiperazin-1-yl)pyridin-3-yl)-2-aminopropanoic acid, CC(=O)N1CCN(c2ccc(C[C@H](N[*:1])C(=O)[*:2])cn2)CC1; Pro(trans-4-NH2) = O=C([C@@H]1C[C@@H](N[*:3])CN1[*:1])[*:2]; Bip(4'-COOH) = N[C@@H](Cc1ccc(-c2ccc(C(=O)O)cc2)cc1)C(=O)O; 1Nal(3S-Me) = C[C@@H](c1cccc2ccccc12)[C@H](N)C(=O)O; Ala(pyrimidin-5-yl) = N[C@@H](Cc1cncnc1)C(=O)O; Phe(4-COOH) = N[C@@H](Cc1ccc(C(=O)O)cc1)C(=O)O; Trp(7-aza) = N[C@@H](Cc1c[nH]c2ncccc12)C(=O)O; h3Pal(5-CN) = N#Cc1cncc(CC[C@H](N)C(=O)O)c1; Ala(4-THP) = N[C@@H](CC1CCOCC1)C(=O)O; hTyr = N[C@@H](CCc1ccc(O)cc1)C(=O)O; dNMeA = CN[C@H](C)C(=O)O; Dap = NC[C@H](N)C(=O)O

Each binder was assayed against Recombinant human IL-1β (BioLegend 579404) (human, UniProt P01584 117-269) (assay: cell-based or functional assay).

MRC5 IC50 | Binder
0.0542 nM | cyclo([Bip(4'-COOH)]W[Phe(4-COOH)]G[Pro(trans-4-NH2)][1Nal(3S-Me)]D[dNMeA]G[Bip(4'-COOH)]KL[dA][hTyr]) (SMILES CC(C)C[C@@H]1NC(=O)[C@H](CCCCN)NC(=O)[C@H](Cc2ccc(-c3ccc(C(=O)O)cc3)cc2)NC(=O)CNC(=O)[C@@H](C)N(C)C(=O)[C@H](CC(=O)O)NC(=O)[C@H]([C@@H](C)c2cccc3ccccc23)NC(=O)[C@@H]2C[C@@H](N)CN2C(=O)CNC(=O)[C@H](Cc2ccc(C(=O)O)cc2)NC(=O)[C@H](Cc2c[nH]c3ccccc23)NC(=O)[C@H](Cc2ccc(-c3ccc(C(=O)O)cc3)cc2)NC(=O)[C@H](CCc2ccc(O)cc2)NC(=O)[C@@H](C)NC1=O) [SEQ ID NO: 25]
0.0185 nM | cyclo([Bip(4'-COOH)]W[Phe(4-COOH)]G[Pro(trans-4-NH2)][1Nal(3S-Me)]D[dNMeA]G[Bip(4'-COOH)]W[Dap][dA][h3Pal(5-CN)]) (SMILES C[C@@H]1C(=O)NCC(=O)N[C@@H](Cc2ccc(-c3ccc(C(=O)O)cc3)cc2)C(=O)N[C@@H](Cc2c[nH]c3ccccc23)C(=O)N[C@@H](CN)C(=O)N[C@H](C)C(=O)N[C@@H](CCc2cncc(C#N)c2)C(=O)N[C@@H](Cc2ccc(-c3ccc(C(=O)O)cc3)cc2)C(=O)N[C@@H](Cc2c[nH]c3ccccc23)C(=O)N[C@@H](Cc2ccc(C(=O)O)cc2)C(=O)NCC(=O)N2C[C@H](N)C[C@H]2C(=O)N[C@@H]([C@@H](C)c2cccc3ccccc23)C(=O)N[C@@H](CC(=O)O)C(=O)N1C) [SEQ ID NO: 30]
0.0205 nM | cyclo([Bip(4'-COOH)]W[Phe(4-COOH)]G[Pro(trans-4-NH2)][1Nal(3S-Me)]D[dNMeA]G[Bip(4'-COOH)][Trp(7-aza)][Dap][dA][hTyr]) (SMILES C[C@@H]1C(=O)NCC(=O)N[C@@H](Cc2ccc(-c3ccc(C(=O)O)cc3)cc2)C(=O)N[C@@H](Cc2c[nH]c3ncccc23)C(=O)N[C@@H](CN)C(=O)N[C@H](C)C(=O)N[C@@H](CCc2ccc(O)cc2)C(=O)N[C@@H](Cc2ccc(-c3ccc(C(=O)O)cc3)cc2)C(=O)N[C@@H](Cc2c[nH]c3ccccc23)C(=O)N[C@@H](Cc2ccc(C(=O)O)cc2)C(=O)NCC(=O)N2C[C@H](N)C[C@H]2C(=O)N[C@@H]([C@@H](C)c2cccc3ccccc23)C(=O)N[C@@H](CC(=O)O)C(=O)N1C) [SEQ ID NO: 29]
0.0112 nM | cyclo([Bip(4'-COOH)]W[Phe(4-COOH)]G[Pro(trans-4-NH2)][1Nal(3S-Me)]D[dNMeA]G[Bip(4'-COOH)][Ala(4-THP)][Dap][dA][h3Pal(5-CN)]) (SMILES C[C@@H]1C(=O)NCC(=O)N[C@@H](Cc2ccc(-c3ccc(C(=O)O)cc3)cc2)C(=O)N[C@@H](CC2CCOCC2)C(=O)N[C@@H](CN)C(=O)N[C@H](C)C(=O)N[C@@H](CCc2cncc(C#N)c2)C(=O)N[C@@H](Cc2ccc(-c3ccc(C(=O)O)cc3)cc2)C(=O)N[C@@H](Cc2c[nH]c3ccccc23)C(=O)N[C@@H](Cc2ccc(C(=O)O)cc2)C(=O)NCC(=O)N2C[C@H](N)C[C@H]2C(=O)N[C@@H]([C@@H](C)c2cccc3ccccc23)C(=O)N[C@@H](CC(=O)O)C(=O)N1C) [SEQ ID NO: 23]
0.0688 nM | cyclo([Bip(4'-COOH)]W[Phe(4-COOH)]G[Pro(trans-4-NH2)][1Nal(3S-Me)]D[dNMeA]G[Bip(4'-COOH)]KL[dS][hTyr]) (SMILES CC(C)C[C@@H]1NC(=O)[C@H](CCCCN)NC(=O)[C@H](Cc2ccc(-c3ccc(C(=O)O)cc3)cc2)NC(=O)CNC(=O)[C@@H](C)N(C)C(=O)[C@H](CC(=O)O)NC(=O)[C@H]([C@@H](C)c2cccc3ccccc23)NC(=O)[C@@H]2C[C@@H](N)CN2C(=O)CNC(=O)[C@H](Cc2ccc(C(=O)O)cc2)NC(=O)[C@H](Cc2c[nH]c3ccccc23)NC(=O)[C@H](Cc2ccc(-c3ccc(C(=O)O)cc3)cc2)NC(=O)[C@H](CCc2ccc(O)cc2)NC(=O)[C@@H](CO)NC1=O) [SEQ ID NO: 26]
0.0599 nM | cyclo([3AzaPhe4AcPip]W[Phe(4-COOH)]G[Pro(trans-4-NH2)][1Nal(3S-Me)]D[dNMeA]G[Bip(4'-COOH)]KL[dA][hTyr]) (SMILES CC(=O)N1CCN(c2ccc(C[C@@H]3NC(=O)[C@H](CCc4ccc(O)cc4)NC(=O)[C@@H](C)NC(=O)[C@H](CC(C)C)NC(=O)[C@H](CCCCN)NC(=O)[C@H](Cc4ccc(-c5ccc(C(=O)O)cc5)cc4)NC(=O)CNC(=O)[C@@H](C)N(C)C(=O)[C@H](CC(=O)O)NC(=O)[C@H]([C@@H](C)c4cccc5ccccc45)NC(=O)[C@@H]4C[C@@H](N)CN4C(=O)CNC(=O)[C@H](Cc4ccc(C(=O)O)cc4)NC(=O)[C@H](Cc4c[nH]c5ccccc45)NC3=O)cn2)CC1) [SEQ ID NO: 3]
0.017 nM | cyclo([Bip(4'-COOH)]W[Phe(4-COOH)]G[Pro(trans-4-NH2)][1Nal(3S-Me)]D[dNMeA]G[Bip(4'-COOH)][Ala(pyrimidin-5-yl)][Dap][dA][h3Pal(5-CN)]) (SMILES C[C@@H]1C(=O)NCC(=O)N[C@@H](Cc2ccc(-c3ccc(C(=O)O)cc3)cc2)C(=O)N[C@@H](Cc2cncnc2)C(=O)N[C@@H](CN)C(=O)N[C@H](C)C(=O)N[C@@H](CCc2cncc(C#N)c2)C(=O)N[C@@H](Cc2ccc(-c3ccc(C(=O)O)cc3)cc2)C(=O)N[C@@H](Cc2c[nH]c3ccccc23)C(=O)N[C@@H](Cc2ccc(C(=O)O)cc2)C(=O)NCC(=O)N2C[C@H](N)C[C@H]2C(=O)N[C@@H]([C@@H](C)c2cccc3ccccc23)C(=O)N[C@@H](CC(=O)O)C(=O)N1C) [SEQ ID NO: 27]
0.0393 nM | cyclo([Bip(4'-COOH)]W[Phe(4-COOH)]G[Pro(trans-4-NH2)][1Nal(3S-Me)]D[dNMeA]G[Bip(4'-COOH)][Ala(pyrimidin-5-yl)][Dap][dA][hTyr]) (SMILES C[C@@H]1C(=O)NCC(=O)N[C@@H](Cc2ccc(-c3ccc(C(=O)O)cc3)cc2)C(=O)N[C@@H](Cc2cncnc2)C(=O)N[C@@H](CN)C(=O)N[C@H](C)C(=O)N[C@@H](CCc2ccc(O)cc2)C(=O)N[C@@H](Cc2ccc(-c3ccc(C(=O)O)cc3)cc2)C(=O)N[C@@H](Cc2c[nH]c3ccccc23)C(=O)N[C@@H](Cc2ccc(C(=O)O)cc2)C(=O)NCC(=O)N2C[C@H](N)C[C@H]2C(=O)N[C@@H]([C@@H](C)c2cccc3ccccc23)C(=O)N[C@@H](CC(=O)O)C(=O)N1C) [SEQ ID NO: 28]
0.0291 nM | cyclo([Bip(4'-COOH)]W[Phe(4-COOH)]G[Pro(trans-4-NH2)][1Nal(3S-Me)]D[dNMeA]G[Bip(4'-COOH)][Ala(4-THP)][Dap][dA][hTyr]) (SMILES C[C@@H]1C(=O)NCC(=O)N[C@@H](Cc2ccc(-c3ccc(C(=O)O)cc3)cc2)C(=O)N[C@@H](CC2CCOCC2)C(=O)N[C@@H](CN)C(=O)N[C@H](C)C(=O)N[C@@H](CCc2ccc(O)cc2)C(=O)N[C@@H](Cc2ccc(-c3ccc(C(=O)O)cc3)cc2)C(=O)N[C@@H](Cc2c[nH]c3ccccc23)C(=O)N[C@@H](Cc2ccc(C(=O)O)cc2)C(=O)NCC(=O)N2C[C@H](N)C[C@H]2C(=O)N[C@@H]([C@@H](C)c2cccc3ccccc23)C(=O)N[C@@H](CC(=O)O)C(=O)N1C) [SEQ ID NO: 24]
